Data reported in patent US10450368 (DUKE UNIVERSITY, dated 2019).

Columns and labels:
[1] = biological target: CH0505_CON D7gp120/293i; test: ELISA
[2] = biological target: T1, CH505w020.14D8gp120; test: ELISA
T1 construct: also called CH505w20.14 gp120

[3] = biological target: T2, CH505w030.20D8gp120/293F; test: ELISA
T2 construct: also called CH505w30.20 gp120

[4] = biological target: T3, CH505.w30.12D8gp120; test: ELISA
T3 construct: also called CH505w30.12 gp120

[5] = biological target: CH505w136.B18D8gp120; test: ELISA
[6] = biological target: CH505.M5D8gp120293F; test: ELISA
[7] = biological target: CH505.M10D8gp120; test: ELISA
[8] = biological target: CH505.M11D8gp120/293F; test: ELISA
[9] = biological target: CH505.M19D8gp120; test: ELISA
[10] = biological target: CH505.M21D8gp120/293F; test: ELISA
[11] = biological target: CH505.M9D8gp120/293F; test: ELISA
[12] = biological target: CH505.M7D8gp120/293F; test: ELISA
[13] = biological target: T4, CH505.TF mutant gp120 M6 (HIV-1); test: ELISA
T4 construct: domain: gp120

[14] = biological target: T5, CH505.TF mutant gp120 M8 (HIV-1); test: ELISA
T5 construct: domain: gp120

[15] = biological target: T6, CH505.TF mutant gp120 M20 (HIV-1); test: ELISA
T6 construct: domain: gp120

[16] = biological target: T7, SSA; test: AtheNA, Ab 25 ug/ml
T7 construct: also called SSA (Ro)
Excerpt: (§1) AtheNA Multi-Lyte ANA Plus Test System is one such assay. This is luminex-based assay, which is also used to screen patient sera.

[17] = biological target: T8, Sm (Smith antigen); test: AtheNA, Ab 25 ug/ml
T8 construct: Protein complex
Excerpt: as §1

[18] = biological target: T9, RNP (ribonucleoprotein); test: AtheNA, Ab 25 ug/ml
T9 construct: Protein-RNA complex
Excerpt: as §1

[19] = biological target: T10, Centromere B (UniProt P07199 1-599); test: AtheNA, Ab 25 ug/ml
T10 construct: also called Cent B
T10 sequence: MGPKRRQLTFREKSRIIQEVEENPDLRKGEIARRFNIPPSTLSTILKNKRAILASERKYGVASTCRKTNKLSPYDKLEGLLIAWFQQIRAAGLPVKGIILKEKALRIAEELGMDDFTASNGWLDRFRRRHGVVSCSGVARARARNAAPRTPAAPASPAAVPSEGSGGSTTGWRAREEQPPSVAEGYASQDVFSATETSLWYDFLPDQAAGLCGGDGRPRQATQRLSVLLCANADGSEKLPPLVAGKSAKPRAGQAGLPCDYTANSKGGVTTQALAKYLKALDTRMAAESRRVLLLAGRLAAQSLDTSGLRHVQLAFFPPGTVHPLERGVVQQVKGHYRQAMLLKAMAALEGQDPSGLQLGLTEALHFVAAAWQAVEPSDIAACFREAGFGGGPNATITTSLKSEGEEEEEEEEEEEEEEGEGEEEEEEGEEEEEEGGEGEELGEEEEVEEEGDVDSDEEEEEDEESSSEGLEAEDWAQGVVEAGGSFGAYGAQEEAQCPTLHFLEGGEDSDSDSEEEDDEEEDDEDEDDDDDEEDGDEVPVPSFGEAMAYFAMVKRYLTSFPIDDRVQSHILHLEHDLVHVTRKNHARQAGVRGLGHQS
Excerpt: as §1

[20] = biological target: T11, Histones; test: AtheNA, Ab 25 ug/ml
T11 construct: Mixture of proteins
Excerpt: as §1

[21] = biological target: T7, SSA; test: AtheNA, Ab 50 ug/ml
Excerpt: as §1

[22] = biological target: T8, Sm (Smith antigen); test: AtheNA, Ab 50 ug/ml
Excerpt: as §1

[23] = biological target: T9, RNP (ribonucleoprotein); test: AtheNA, Ab 50 ug/ml
Excerpt: as §1

[24] = biological target: T10, Centromere B; test: AtheNA, Ab 50 ug/ml
Excerpt: as §1

[25] = biological target: T11, Histones; test: AtheNA, Ab 50 ug/ml
Excerpt: as §1

[26] = biological target: T7, SSA; test: AtheNA, Ab 12.5 ug/ml
Excerpt: as §1

[27] = biological target: T8, Sm (Smith antigen); test: AtheNA, Ab 12.5 ug/ml
Excerpt: as §1

[28] = biological target: T9, RNP (ribonucleoprotein); test: AtheNA, Ab 12.5 ug/ml
Excerpt: as §1

[29] = biological target: T10, Centromere B; test: AtheNA, Ab 12.5 ug/ml
Excerpt: as §1

[30] = biological target: T11, Histones; test: AtheNA, Ab 12.5 ug/ml
Excerpt: as §1

[31] = biological target: T7, SSA; test: AtheNA, Ab 6.25 ug/ml
Excerpt: as §1

[32] = biological target: T8, Sm (Smith antigen); test: AtheNA, Ab 6.25 ug/ml
Excerpt: as §1

[33] = biological target: T9, RNP (ribonucleoprotein); test: AtheNA, Ab 6.25 ug/ml
Excerpt: as §1

[34] = biological target: T10, Centromere B; test: AtheNA, Ab 6.25 ug/ml
Excerpt: as §1

[35] = biological target: T11, Histones; test: AtheNA, Ab 6.25 ug/ml
Excerpt: as §1

[36] = biological target: Con S gp120; test: direct-binding ELISA (OD450), panel 'Con S gp120'
[37] = biological target: T4, CH505.TF mutant gp120 M6; test: direct-binding ELISA (OD450), panel 'CH505.TF gp120 M6'
[38] = biological target: CH505.TF gp120 delta371I; test: direct-binding ELISA (OD450), panel 'CH505.TF gp120 delta371I'

B1: CH491 (antibody, V domains shown)
VH: QVQLVQSGAAVKRPGASVTISCRASGYTFTTYYIHWVRQAPGQGLELMGWINPRGGRTDYSYRFEDRVSMYRDTSMSIVYMDLRNLKSADTAVYYCVRNVGTSGSLLHYDFWGQGSLVTVSS
VL: EIVLTQSPATLSVSPGERVTLSCRASQSVRNNLAWYRQKRGQAPRLLIYGASTRATGIPARFSGSGSGTEFTLTISSMQSEDFAVYYCQQYNNWWTFGQGTKVEIK
notes: also called CH235.7; DH491
With B1 the LogAUC [1] was 9.64, the LogAUC [2] was 9.35 and the LogAUC [3] was 8.82. It also gave a LogAUC [4] of 3.89, a LogAUC [5] of 3.53 and a LogAUC [6] of 10.6. It also gave a LogAUC [7] of 10.6, a LogAUC [8] of 6.75 and a LogAUC [9] of 6.61. It also gave a LogAUC [10] of 0, a LogAUC [11] of 0 and a LogAUC [12] of 0. It also gave a LogAUC [13] of 9.21, a LogAUC [14] of 0 and a LogAUC [15] of 0. The AtheNA signal [16] was 44, the AtheNA signal [17] was 4 and the AtheNA signal [18] was 30. The AtheNA signal [19] was 45, the AtheNA signal [20] was 44 and the AtheNA signal [21] was 68. It also gave an AtheNA signal [22] of 6, an AtheNA signal [23] of 43 and an AtheNA signal [24] of 54. It also gave an AtheNA signal [25] of 59, an AtheNA signal [26] of 28 and an AtheNA signal [27] of 3. The AtheNA signal [28] was 24, the AtheNA signal [29] was 34 and the AtheNA signal [30] was 34. The AtheNA signal [31] was 21, the AtheNA signal [32] was 4 and the AtheNA signal [33] was 18. The AtheNA signal [34] was 26, the AtheNA signal [35] was 26 and the “EC50 (read off the curve)” value [36] was roughly 0.05 µg/mL. For the same binder, the “EC50 (read off the curve)” value [37] was roughly 0.2 µg/mL and the “EC50 (read off the curve)” value [38] was roughly 8 µg/mL.
